Data published in patent US20180202002.

Biological target: T1, N-terminal tagged Cyclin D1 (FLAG-HA-Cyclin D1, tag at the N-terminus), P25322
T1 chain: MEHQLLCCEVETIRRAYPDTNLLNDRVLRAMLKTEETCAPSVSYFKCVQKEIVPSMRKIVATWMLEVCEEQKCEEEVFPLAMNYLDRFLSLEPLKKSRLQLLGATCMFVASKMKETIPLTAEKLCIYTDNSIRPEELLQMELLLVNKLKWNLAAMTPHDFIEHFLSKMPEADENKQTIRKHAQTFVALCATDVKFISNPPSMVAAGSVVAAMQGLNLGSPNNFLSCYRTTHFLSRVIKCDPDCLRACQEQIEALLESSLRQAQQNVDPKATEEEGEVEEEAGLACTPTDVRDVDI

B1: caspase 3 (protein)
chain: MENNKTSVDSKSINNFEVKTIHGSKSVDSGIYLDSSYKMDYPEMGICIIINNKNFHKSTGMSSRSGTDVDAANLRETFMGLKYQVRNKNDLTREDILELMDSVSKEDHSKRSSFVCVILSHGDEGVIYGTNGPVELKKLTSFFRGDYCRSLTGKPKLFIIQACRGTELDCGIETDSGTDEEMACQKIPVEADFLYAYSTAPGYYSWRNSKDGSWFIQSLCSMLKLYAHKLEFMHILTRVNRKVATEFESFSLDSTFHAKKQIPCIVSMLTKELYFYH
With B1 the “levels of cleaved PARP (Western blot) after treatment with 5-FU” value was “The levels of cleaved PARP increase in RAS or ErbB2 cancer cells after treatment with 5-FU, although limited by the Cyclin D1”.
